{
  "source": "paper PMC8227779",
  "target": "ZZ-CBM3 (Staphylococcus aureus)",
  "test": "pull-down; ZZ-CBM3 pre-anchored on discs of cellulose hydrogel (8Cell, 14Cell, 18Cell; 5 mm, 30 mg); 100 uL of IgG (0.312-10.0 uM) in TST buffer incubated 18 h at 37 °C; free IgG in the supernatant by absorbance at 280 nm (NanoDrop), bound IgG by mass balance; triplicates",
  "data": [
    {"substance": "Human normal immunoglobulin (IgG) (antibody)", "values": [
      {"measurement": "grafting yield relative to the initial amount contacted with the modified hydrogels", "result": "26 to 89", "unit": "%"},
      {"measurement": "stoichiometry N (mol IgG per mol ZZ-CBM3)", "result": 1}
    ]}
  ]
}
